B1: NEK8 (parent)
chain: YTFGSNQHGQLGTNTRRGSRAPCK
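Further: lentivirally expressed fusions sorted by FACS into six bins by GFP to DsRed ratio, PSI derived from sequencing read proportions per bin multiplied by bin number.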

Variants of: B1
Assay: protein stability index of a GFP-peptide fusion (GPS, HEK-293T) (PSI 1-6); higher = more stable
Details: c terminus: a fixed tail appended
For YTFGSNQHGQLGTNTRRGSRAPNK, the protein stability index was 4.19.
Work on YTFGSNQHGQLGTNTRRGSRAPQK yielded a protein stability index of 4.18.
In the case of YTFGSNQHGQLGTNTRRGSRAPYK, the protein stability index is reported as 3.46.
Variant YTFGSNQHGQLGTNTRRGSRAPSK has a protein stability index of 3.72.
Work on YTFGSNQHGQLGTNTRRGSRAPHK yielded a protein stability index of 4.25.
Variant YTFGSNQHGQLGTNTRRGSRAPIK has a protein stability index of 3.59.
Work on YTFGSNQHGQLGTNTRRGSRAPKK yielded a protein stability index of 4.21.
Variant YTFGSNQHGQLGTNTRRGSRAPEK has a protein stability index of 4.27.
Variant YTFGSNQHGQLGTNTRRGSRAPPK has a protein stability index of 3.89.
YTFGSNQHGQLGTNTRRGSRAPGK showed a protein stability index of 3.4.
YTFGSNQHGQLGTNTRRGSRAPVK gave a protein stability index of 4.25.
Work on YTFGSNQHGQLGTNTRRGSRAPWK yielded a protein stability index of 3.37.
Work on YTFGSNQHGQLGTNTRRGSRAPAK yielded a protein stability index of 3.95.
Work on YTFGSNQHGQLGTNTRRGSRAPMK yielded a protein stability index of 3.61.
In the case of YTFGSNQHGQLGTNTRRGSRAPRK, the protein stability index is reported as 4.
YTFGSNQHGQLGTNTRRGSRAPDK gave a protein stability index of 4.19.
For YTFGSNQHGQLGTNTRRGSRAPFK, the protein stability index was 3.61.
For YTFGSNQHGQLGTNTRRGSRAPTK, the protein stability index was 3.9.
YTFGSNQHGQLGTNTRRGSFAPCK gave a protein stability index of 2.85.
In the case of YTFGSNQHGQLGTNTRRGSAAPCK, the protein stability index is reported as 4.07.
For YTFGSNQHGQLGTNTRRGSDAPCK, the protein stability index was 3.81.
YTFGSNQHGQLGTNTRRGSTAPCK gave a protein stability index of 3.86.
Variant YTFGSNQHGQLGTNTRRGSVAPCK has a protein stability index of 3.48.
With YTFGSNQHGQLGTNTRRGSNAPCK the protein stability index was 4.05.
YTFGSNQHGQLGTNTRRGSHAPCK showed a protein stability index of 3.96.
YTFGSNQHGQLGTNTRRGSCAPCK gave a protein stability index of 3.33.
For YTFGSNQHGQLGTNTRRGSWAPCK, the protein stability index was 2.21.
YTFGSNQHGQLGTNTRRGSYAPCK gave a protein stability index of 3.07.
Work on YTFGSNQHGQLGTNTRRGSGAPCK yielded a protein stability index of 3.97.
In the case of YTFGSNQHGQLGTNTRRGSKAPCK, the protein stability index is reported as 4.38.
YTFGSNQHGQLGTNTRRGSEAPCK showed a protein stability index of 4.1.
Work on YTFGSNQHGQLGTNTRRGSPAPCK yielded a protein stability index of 3.83.
YTFGSNQHGQLGTNTRRGSLAPCK gave a protein stability index of 3.53.
Variant YTFGSNQHGQLGTNTRRGSSAPCK has a protein stability index of 3.55.
For YTFGSNQHGQLGTNTRRGSIAPCK, the protein stability index was 3.52.
YTFGSNQHGQLGTNTRRGSQAPCK showed a protein stability index of 4.17.
YTFGSNQHGQLGTNTRRGSMAPCK gave a protein stability index of 3.15.
Variant YTFGSNQHGQLGTNTRRGSRAPCG has a protein stability index of 4.29.
YTFGSNQHGQLGTNTRRGSRAPCM gave a protein stability index of 2.94.
With YTFGSNQHGQLGTNTRRGSRAPCY the protein stability index was 2.63.
YTFGSNQHGQLGTNTRRGSRAPCC gave a protein stability index of 2.72.
Work on YTFGSNQHGQLGTNTRRGSRAPCT yielded a protein stability index of 3.43.
In the case of YTFGSNQHGQLGTNTRRGSRAPCA, the protein stability index is reported as 3.45.
Work on YTFGSNQHGQLGTNTRRGSRAPCS yielded a protein stability index of 3.24.
Variant YTFGSNQHGQLGTNTRRGSRAPCD has a protein stability index of 3.91.
In the case of YTFGSNQHGQLGTNTRRGSRAPCF, the protein stability index is reported as 2.93.
For YTFGSNQHGQLGTNTRRGSRAPCV, the protein stability index was 3.68.
Variant YTFGSNQHGQLGTNTRRGSRAPCH has a protein stability index of 3.52.
Variant YTFGSNQHGQLGTNTRRGSRAPCR has a protein stability index of 3.44.
For YTFGSNQHGQLGTNTRRGSRAPCL, the protein stability index was 3.81.
Work on YTFGSNQHGQLGTNTRRGSRAPCI yielded a protein stability index of 3.08.
Variant YTFGSNQHGQLGTNTRRGSRAPCN has a protein stability index of 3.2.
For YTFGSNQHGQLGTNTRRGSRAPCQ, the protein stability index was 3.79.
Variant YTFGSNQHGQLGTNTRRGSRAPCW has a protein stability index of 2.59.
YTFGSNQHGQLGTNTRRGSRAPCE gave a protein stability index of 3.77.
For YTFGSNQHGQLGTNTRRGSRAPCP, the protein stability index was 4.09.
With YTFGSNQHGQLGTNTRRGSRADCK the protein stability index was 4.13.
YTFGSNQHGQLGTNTRRGSRAMCK showed a protein stability index of 3.44.
YTFGSNQHGQLGTNTRRGSRACCK gave a protein stability index of 3.84.
Variant YTFGSNQHGQLGTNTRRGSRAVCK has a protein stability index of 3.99.
Variant YTFGSNQHGQLGTNTRRGSRAQCK has a protein stability index of 3.73.
YTFGSNQHGQLGTNTRRGSRANCK showed a protein stability index of 4.22.
For YTFGSNQHGQLGTNTRRGSRASCK, the protein stability index was 3.96.
In the case of YTFGSNQHGQLGTNTRRGSRAGCK, the protein stability index is reported as 4.3.
Variant YTFGSNQHGQLGTNTRRGSRAKCK has a protein stability index of 3.82.
Work on YTFGSNQHGQLGTNTRRGSRAFCK yielded a protein stability index of 3.66.
In the case of YTFGSNQHGQLGTNTRRGSRATCK, the protein stability index is reported as 3.95.
In the case of YTFGSNQHGQLGTNTRRGSRALCK, the protein stability index is reported as 3.4.
YTFGSNQHGQLGTNTRRGSRAECK gave a protein stability index of 3.88.
For YTFGSNQHGQLGTNTRRGSRAICK, the protein stability index was 3.94.
YTFGSNQHGQLGTNTRRGSRAYCK gave a protein stability index of 3.72.
For YTFGSNQHGQLGTNTRRGSRAWCK, the protein stability index was 3.51.
For YTFGSNQHGQLGTNTRRGSRAACK, the protein stability index was 3.82.
For YTFGSNQHGQLGTNTRRGSRAHCK, the protein stability index was 3.53.
YTFGSNQHGQLGTNTRRGSRARCK showed a protein stability index of 3.82.
With YTFGSNQHGQLGTNTRRGSRHPCK the protein stability index was 3.79.
For YTFGSNQHGQLGTNTRRGSRFPCK, the protein stability index was 3.54.
In the case of YTFGSNQHGQLGTNTRRGSRCPCK, the protein stability index is reported as 2.94.
Variant YTFGSNQHGQLGTNTRRGSRQPCK has a protein stability index of 3.89.
In the case of YTFGSNQHGQLGTNTRRGSRNPCK, the protein stability index is reported as 4.1.
YTFGSNQHGQLGTNTRRGSRGPCK showed a protein stability index of 3.7.
For YTFGSNQHGQLGTNTRRGSRDPCK, the protein stability index was 4.11.
Work on YTFGSNQHGQLGTNTRRGSRPPCK yielded a protein stability index of 3.69.
For YTFGSNQHGQLGTNTRRGSRVPCK, the protein stability index was 3.84.
Variant YTFGSNQHGQLGTNTRRGSRKPCK has a protein stability index of 4.24.
For YTFGSNQHGQLGTNTRRGSRMPCK, the protein stability index was 3.5.
Variant YTFGSNQHGQLGTNTRRGSRWPCK has a protein stability index of 2.69.
Work on YTFGSNQHGQLGTNTRRGSRRPCK yielded a protein stability index of 3.53.
For YTFGSNQHGQLGTNTRRGSRTPCK, the protein stability index was 4.3.
YTFGSNQHGQLGTNTRRGSREPCK gave a protein stability index of 4.32.
YTFGSNQHGQLGTNTRRGSRLPCK showed a protein stability index of 3.54.
YTFGSNQHGQLGTNTRRGSRIPCK showed a protein stability index of 3.69.
YTFGSNQHGQLGTNTRRGSRYPCK gave a protein stability index of 3.38.
With YTFGSNQHGQLGTNTRRGSRSPCK the protein stability index was 3.84.

— the supplement of paper PMC10567573
